The record followed here is the RNAGym collection of RNA variant scans (doi:10.7554/elife.80360).

Sequences and labels used below:
B1: Hairpin Ribozyme (parent)
chain: GUCCUCUUUCACGUGCGCGUGAAAGAGAGAAGUGAACCAGAGAAACACACGUUGUGGUAUAUUACCUGGUA

In the data set the parent is B1. As to the kind of experiment: self-cleavage, relative activity (ratio to wild type); higher = more cleavage; co-transcriptional.
Take GUCCUCUUUCACGUGCGCGUGAAAGAGAGAAGUGAACCAGAGAAACACACGUUGUGGUUUAUUACCCGGUA [A59U U67C]: the self-cleavage is 0.11. Consider GUCCUCUUUCACGUGCGCGUGAAAGAGAGAAGUGAACCAGAGAAACACACGUUGUGGUUUUUUACCUGGUA [A59U A61U], for which the self-cleavage stood at 0.168.

As to GUCCUCUUUCACGUGCGCGUGAAAGAGAGAAGUGAACCAGAGAAACACACGUUGUGGUUUCUUACCUGGUA [A59U A61C], the self-cleavage worked out at 0.0374. For GUCCUCUUUCACGUGCGCGUGAAAGAGAGAAGUGAACCAGAGAAACACACGUUGUGGUAUCUUACCGGGUA [A61C U67G], the self-cleavage worked out at 0.24. Regarding GUCCUCUUUCACGUGCGCGUGAAAGAGAGAAGUGAACCAGAGAAACACACGUUGUGGUGUAUUACCAGGUA [A59G U67A], the self-cleavage came out at 0.311.

Regarding GUCCUCUUUCACGUGCGCGUGAAAGAGAGAAGUGAACCAGAGAAACACACGUUGUGGUGUAUUACCGGGUA [A59G U67G], the self-cleavage came out at 0.153.

As for GUCCUCUUUCACGUGCGCGUGAAAGAGAGAAGUGAACCAGAGAAACACACGUUGUGGUGUAUUAUCUGGUA [A59G C65U], the self-cleavage turned out to be 0.18. With GUCCUCUUUCACGUGCGCGUGAAAGAGAGAAGUGAACCAGAGAAACACACGUUGUGGUACAUUACCUGAUA [U60C G69A] the figure was 0.51; with GUCCUCUUUCACGUGCGCGUGAAAGAGAGAAGUGAACCAGAGAAACACACGUUGUGGUUUAUUACCUGGAA [A59U U70A], 0.177; with GUCCUCUUUCACGUGCGCGUGAAAGAGAGAAGUGAACCAGAGAAACACACGUUGUGGUACUUUACCUGGUA [U60C A61U], 0.296. For the variant GUCCUCUUUCACGUGCGCGUGAAAGAGAGAAGUGAACCAGAGAAACACACGUUGUGGUAGAUUACCUGUUA [U60G G69U], the self-cleavage stood at 0.101. With GUCCUCUUUCACGUGCGCGUGAAAGAGAGAAGUGAACCAGAGAAACACACGUUGUGGUAGGUUACCUGGUA [U60G A61G] the figure was 0.205; with GUCCUCUUUCACGUGCGCGUGAAAGAGAGAAGUGAACCAGAGAAACACACGUUGUGGUUUACUACCUGGUA [A59U U62C], 0.185; with GUCCUCUUUCACGUGCGCGUGAAAGAGAGAAGUGAACCAGAGAAACACACGUUGUGGUUUAAUACCUGGUA [A59U U62A], 0.326.

Take GUCCUCUUUCACGUGCGCGUGAAAGAGAGAAGUGAACCAGAGAAACACACGUUGUGGUUUAGUACCUGGUA [A59U U62G]: the self-cleavage was 0.262. Consider GUCCUCUUUCACGUGCGCGUGAAAGAGAGAAGUGAACCAGAGAAACACACGUUGUGGUAUCAUACCUGGUA [A61C U62A], for which the self-cleavage was 0.143. Consider GUCCUCUUUCACGUGCGCGUGAAAGAGAGAAGUGAACCAGAGAAACACACGUUGUGGUAUCGUACCUGGUA [A61C U62G], for which the self-cleavage is 0.102. With GUCCUCUUUCACGUGCGCGUGAAAGAGAGAAGUGAACCAGAGAAACACACGUUGUGGUCUAUUACCUGGGA [A59C U70G] the figure was 0.141; with GUCCUCUUUCACGUGCGCGUGAAAGAGAGAAGUGAACCAGAGAAACACACGUUGUGGUCUAUUACCUGGCA [A59C U70C], 0.151; with GUCCUCUUUCACGUGCGCGUGAAAGAGAGAAGUGAACCAGAGAAACACACGUUGUGGUACAUUGCCUGGUA [U60C A64G], 0.614. For GUCCUCUUUCACGUGCGCGUGAAAGAGAGAAGUGAACCAGAGAAACACACGUUGUGGUACAUUACCUGGAA [U60C U70A], the self-cleavage was determined as 1.29. Regarding GUCCUCUUUCACGUGCGCGUGAAAGAGAGAAGUGAACCAGAGAAACACACGUUGUGGUUGAUUACCUGGUA [A59U U60G], the self-cleavage came out at 0.172. GUCCUCUUUCACGUGCGCGUGAAAGAGAGAAGUGAACCAGAGAAACACACGUUGUGGUUCAUUACCUGGUA [A59U U60C]: the self-cleavage turned out to be 0.257.

For the variant GUCCUCUUUCACGUGCGCGUGAAAGAGAGAAGUGAACCAGAGAAACACACGUUGUGGUACAUUAACUGGUA [U60C C65A], the self-cleavage worked out at 1.34.

Turning to GUCCUCUUUCACGUGCGCGUGAAAGAGAGAAGUGAACCAGAGAAACACACGUUGUGGUAGAUUUCCUGGUA [U60G A64U], the self-cleavage is 0.202.

Take GUCCUCUUUCACGUGCGCGUGAAAGAGAGAAGUGAACCAGAGAAACACACGUUGUGGUGUAUUACCUGAUA [A59G G69A]: the self-cleavage came out at 0.125. Turning to GUCCUCUUUCACGUGCGCGUGAAAGAGAGAAGUGAACCAGAGAAACACACGUUGUGGUGUAUUACCUGUUA [A59G G69U], the self-cleavage was found to be 0.15.

Take GUCCUCUUUCACGUGCGCGUGAAAGAGAGAAGUGAACCAGAGAAACACACGUUGUGGUUUAUUAGCUGGUA [A59U C65G]: the self-cleavage worked out at 0.218. Regarding GUCCUCUUUCACGUGCGCGUGAAAGAGAGAAGUGAACCAGAGAAACACACGUUGUGGUUUAUUACCUGGUG [A59U A71G], the self-cleavage is 0.156. Take GUCCUCUUUCACGUGCGCGUGAAAGAGAGAAGUGAACCAGAGAAACACACGUUGUGGUUUAUUACCUGGUU [A59U A71U]: the self-cleavage was 0.252. As to GUCCUCUUUCACGUGCGCGUGAAAGAGAGAAGUGAACCAGAGAAACACACGUUGUGGUAGAUUAACUGGUA [U60G C65A], the self-cleavage came to 0.453. For GUCCUCUUUCACGUGCGCGUGAAAGAGAGAAGUGAACCAGAGAAACACACGUUGUGGUAGAUUAGCUGGUA [U60G C65G], the self-cleavage came to 0.442. As for GUCCUCUUUCACGUGCGCGUGAAAGAGAGAAGUGAACCAGAGAAACACACGUUGUGGUAUCUUACAUGGUA [A61C C66A], the self-cleavage worked out at 0.0988.

As to GUCCUCUUUCACGUGCGCGUGAAAGAGAGAAGUGAACCAGAGAAACACACGUUGUGGUAUCUUACGUGGUA [A61C C66G], the self-cleavage is 0.101. Regarding GUCCUCUUUCACGUGCGCGUGAAAGAGAGAAGUGAACCAGAGAAACACACGUUGUGGUAUCUUACUUGGUA [A61C C66U], the self-cleavage amounted to 0.145. On to GUCCUCUUUCACGUGCGCGUGAAAGAGAGAAGUGAACCAGAGAAACACACGUUGUGGUGUAUUACCUGGAA [A59G U70A], for which the self-cleavage worked out at 0.163.

For GUCCUCUUUCACGUGCGCGUGAAAGAGAGAAGUGAACCAGAGAAACACACGUUGUGGUAGAUUACCUGGUC [U60G A71C], the self-cleavage turned out to be 1.01. Take GUCCUCUUUCACGUGCGCGUGAAAGAGAGAAGUGAACCAGAGAAACACACGUUGUGGUAGAUUACCUGGUG [U60G A71G]: the self-cleavage came to 0.672.
